Measured values as given in paper PMC11251522, “Transcription factors ERα and Sox2 have differing multiphasic DNA- and RNA-binding mechanisms”.

Columns and labels:
[1] = molecular target: T1, Sox2 HMG (human, UniProt P48431 40-123); test: fluorescence anisotropy; apparent; Hill n 0.68; FP at 4°C; ERα: 20 mM Tris pH 7.5 (at 25°C), 100 mM NaCl, 5% glycerol, 0.01% IGEPAL; Sox2: 10 mM Tris pH 7.5 (at 25°C), 135 mM KCl, 15 mM NaCl, 0.1 mg/mL BSA, 4% Ficoll, 0.05% NP-40, 1 mM DTT; SPR: ERα buffer, 25°C; conditions: protein: recombinant; tags: N-terminal His8-MBP, 3C-cleaved
T1 sequence (P48431 40-123): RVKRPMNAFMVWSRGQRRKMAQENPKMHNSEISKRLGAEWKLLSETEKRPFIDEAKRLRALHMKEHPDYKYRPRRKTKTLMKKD

[2] = molecular target: T1, Sox2 HMG; test: fluorescence anisotropy; second (low-affinity) transition; FP at 4°C; ERα: 20 mM Tris pH 7.5 (at 25°C), 100 mM NaCl, 5% glycerol, 0.01% IGEPAL; Sox2: 10 mM Tris pH 7.5 (at 25°C), 135 mM KCl, 15 mM NaCl, 0.1 mg/mL BSA, 4% Ficoll, 0.05% NP-40, 1 mM DTT; SPR: ERα buffer, 25°C; conditions: protein: recombinant; tags: N-terminal His8-MBP, 3C-cleaved; G-quadruplex
[3] = molecular target: T1, Sox2 HMG; test: fluorescence anisotropy; printed ≤1; first (high-affinity) transition, 44% of signal; FP at 4°C; ERα: 20 mM Tris pH 7.5 (at 25°C), 100 mM NaCl, 5% glycerol, 0.01% IGEPAL; Sox2: 10 mM Tris pH 7.5 (at 25°C), 135 mM KCl, 15 mM NaCl, 0.1 mg/mL BSA, 4% Ficoll, 0.05% NP-40, 1 mM DTT; SPR: ERα buffer, 25°C; conditions: protein: recombinant; tags: N-terminal His8-MBP, 3C-cleaved; G-quadruplex

Binder	Kd [1] [nM]	Kd [2] [nM]	Kd [3] [nM]
AAAAAAAAAAAAAAAAAAAA (ssRNA) [poly(A) RNA (rA20)]	40 ± 13		
GGGAAGGGAAGGGAAGGGAA (structured_RNA) [G4 RNA (rG4), (G3A2)4]		110 ± 32	< 1
